# Earlier results in PMC3089900.
# Target: His276 (UniProt position 276, SEELDHALNDM)
# Assay: NMR
# Conditions: in the presence of troponin T fragment TnT1
substance,measurement,value
alpha-tropomyosin (striated muscle alpha-Tm) (Oryctolagus cuniculus (inferred; the article's alpha-Tm sequence discussion and preparations are rabbit)),pKa,7.27−7.98
